The target in assay [1] is T1, human 4-1BB on CHO-K1 cells (human, UniProt Q07011 24-255). As to the kind of experiment: FACS. (Flow cytometry measures light scatter and fluorescence of single cells or particles in a stream.)
Assay [2] deals with T2, human PD-L1 on CHO-K1 cells (human, UniProt Q9NZQ7 19-290). As to the kind of experiment: FACS; MDA-MB-231 cells.
For assay [3], the target named is T1, human 4-1BB on CHO-K1 cells. Kind of assay: FACS. This is another data set of the same source.
The target in assay [4] is T2, human PD-L1 on CHO-K1 cells. As to the kind of experiment: FACS.

Like-named read-outs stand apart in the source and are kept apart here.

T2 sequence (Q9NZQ7 19-290): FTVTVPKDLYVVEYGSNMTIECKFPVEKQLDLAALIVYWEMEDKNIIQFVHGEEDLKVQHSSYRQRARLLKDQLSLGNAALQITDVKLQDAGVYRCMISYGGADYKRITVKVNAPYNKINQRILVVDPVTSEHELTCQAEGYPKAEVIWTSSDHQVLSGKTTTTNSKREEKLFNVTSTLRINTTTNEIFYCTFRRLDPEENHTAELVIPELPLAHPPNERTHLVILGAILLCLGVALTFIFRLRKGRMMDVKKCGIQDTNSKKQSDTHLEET

B1: PR007149 (bispecific antibody)
light: DIQMTQSPSTLSASVGDRVTVTCRASQSIYIWLAWYQQKPGKAPNLLIYKASSLETGVPSRFSGSGSGTEFTLTISSLQPDDFATYYCQQYYGSSRTFGQGTKVEIKRTVAAPSVFIFPPSDEQLKSGTASVVCLLNNFYPREAKVQWKVDNALQSGNSQESVTEQDSKDSTYSLSSTLTLSKADYEKHKVYACEVTHQGLSSPVTKSFNRGEC
heavy: EVQLVESGGGLVQPGGSLRLSCAASGFTFSSYWMSWVRQAPGKGLEWVANIKQEGSEKYYVDSVKGRFTISRDNAKNSLYLQMNSLRAEDTAVYYCARDRAVAGAFDIWGQGTMVTVSSASTKGPSVFPLAPSSKSTSGGTAALGCLVKDYFPEPVTVSWNSGALTSGVHTFPAVLQSSGLYSLSSVVTVPSSSLGTQTYICNVNHKPSNTKVDKKVEPKSCDKTHTCPPCPAPEAAGAPSVFLFPPKPKDTLMISRTPEVTCVVVDVSHEDPEVKFNWYVDGVEVHNAKTKPREEQYNSTYRVVSVLTVLHQDWLNGKEYKCKVSNKALPAPIEKTISKAKGQPREPQVYTLPPSREEMTKNQVSLTCLVKGFYPSDIAVEWESNGQPENNYKTTPPVLDSDGSFFLYSKLTVDKSRWQQGNVFSCSVMHEALHNHYTQKSLSLSPGGGSGGSEVQLVESGGGLVKPGGSLRLSCTTSGFTFSDYYMNWVRQAPGKGLEWVSYISNNGSTIYYADSVKGRFTISRDNAKNSLYLQMNSLRAEDTAVYYCARVRPGGSGNYWDWFDPWGQGTPVTVSS
In general, EC50 refers to the midpoint of the concentration-response curve. High values mean a need for much substance, low ones an effect from little substance. With B1, the figures for the EC50 in assay [1] and in assay [2] were 2.36 nM and 0.206 nM, respectively.

B2: PR003551 (bispecific antibody)
light: DIQMTQSPSTLSASVGDRVTVTCRASQSIYIWLAWYQQKPGKAPNLLIYKASSLETGVPSRFSGSGSGTEFTLTISSLQPDDFATYYCQQYYGSSRTFGQGTKVEIKRTVAAPSVFIFPPSDEQLKSGTASVVCLLNNFYPREAKVQWKVDNALQSGNSQESVTEQDSKDSTYSLSSTLTLSKADYEKHKVYACEVTHQGLSSPVTKSFNRGEC
heavy: EVQLVESGGGLVQPGGSLRLSCAASGFTFSSYWMSWVRQAPGKGLEWVANIKQEGSEKYYVDSVKGRFTISRDNAKNSLYLQMNSLRAEDTAVYYCARDRAVAGAFDIWGQGTMVTVSSASTKGPSVFPLAPSSKSTSGGTAALGCLVKDYFPEPVTVSWNSGALTSGVHTFPAVLQSSGLYSLSSVVTVPSSSLGTQTYICNVNHKPSNTKVDKKVEPKSCDKTHTCPPCPAPEAAGGPSVFLFPPKPKDTLMISRTPEVTCVVVDVSHEDPEVKFNWYVDGVEVHNAKTKPREEQYNSTYRVVSVLTVLHQDWLNGKEYKCKVSNKALGAPIEKTISKAKGQPREPQVYTLPPSREEMTKNQVSLTCLVKGFYPSDIAVEWESNGQPENNYKTTPPVLDSDGSFFLYSKLTVDKSRWQQGNVFSCSVMHEALHNHYTQKSLSLSPGEPKSSDKTHTPPPPPRTEVQLLESGGGLVQPGGSLRLSCAASGFIFSNFAMTWVRQPPEKGLKWVSSINGSGFNTYYTDSVKGRFTISRDNSRNTLYLQMNRLTAEDTAVYFCAKEGSSETDDHYYNVDVWGQGTTVTVSS
Turning to B2, the 50% effective concentration (EC50) in assay [3] was 3.15 nM; in assay [4], 1.29 nM.

B3: PR007143 (bispecific antibody)
light: DIQMTQSPSTLSASVGDRVTVTCRASQSIYIWLAWYQQKPGKAPNLLIYKASSLETGVPSRFSGSGSGTEFTLTISSLQPDDFATYYCQQYYGSSRTFGQGTKVEIKRTVAAPSVFIFPPSDEQLKSGTASVVCLLNNFYPREAKVQWKVDNALQSGNSQESVTEQDSKDSTYSLSSTLTLSKADYEKHKVYACEVTHQGLSSPVTKSFNRGEC
heavy: EVQLVESGGGLVQPGGSLRLSCAASGFTFSSYWMSWVRQAPGKGLEWVANIKQEGSEKYYVDSVKGRFTISRDNAKNSLYLQMNSLRAEDTAVYYCARDRAVAGAFDIWGQGTMVTVSSASTKGPSVFPLAPSSKSTSGGTAALGCLVKDYFPEPVTVSWNSGALTSGVHTFPAVLQSSGLYSLSSVVTVPSSSLGTQTYICNVNHKPSNTKVDKKVEPKSCDKTHTCPPCPAPEAAGAPSVFLFPPKPKDTLMISRTPEVTCVVVDVSHEDPEVKFNWYVDGVEVHNAKTKPREEQYNSTYRVVSVLTVLHQDWLNGKEYKCKVSNKALPAPIEKTISKAKGQPREPQVYTLPPSREEMTKNQVSLTCLVKGFYPSDIAVEWESNGQPENNYKTTPPVLDSDGSFFLYSKLTVDKSRWQQGNVFSCSVMHEALHNHYTQKSLSLSPGGGSGGSEVQLVESGGGLVKPGGSLRLSCVASGFTFSDYYMSWFRQAPGKGLEWVSYISGSGTTIDYADSVKGRFTISRDNAKNSLYLQMNSLRAEDTAVYYCAREREAVAGTLDFDNWGQGTPVTVSS
As for B3, the EC50 in assay [1] is 3.4 nM; in assay [2] it was 0.315 nM.

B4: PR007141 (bispecific antibody)
light: DIQMTQSPSTLSASVGDRVTVTCRASQSIYIWLAWYQQKPGKAPNLLIYKASSLETGVPSRFSGSGSGTEFTLTISSLQPDDFATYYCQQYYGSSRTFGQGTKVEIKRTVAAPSVFIFPPSDEQLKSGTASVVCLLNNFYPREAKVQWKVDNALQSGNSQESVTEQDSKDSTYSLSSTLTLSKADYEKHKVYACEVTHQGLSSPVTKSFNRGEC
heavy: EVQLVESGGGLVQPGGSLRLSCAASGFTFSSYWMSWVRQAPGKGLEWVANIKQEGSEKYYVDSVKGRFTISRDNAKNSLYLQMNSLRAEDTAVYYCARDRAVAGAFDIWGQGTMVTVSSASTKGPSVFPLAPSSKSTSGGTAALGCLVKDYFPEPVTVSWNSGALTSGVHTFPAVLQSSGLYSLSSVVTVPSSSLGTQTYICNVNHKPSNTKVDKKVEPKSCDKTHTCPPCPAPEAAGAPSVFLFPPKPKDTLMISRTPEVTCVVVDVSHEDPEVKFNWYVDGVEVHNAKTKPREEQYNSTYRVVSVLTVLHQDWLNGKEYKCKVSNKALPAPIEKTISKAKGQPREPQVYTLPPSREEMTKNQVSLTCLVKGFYPSDIAVEWESNGQPENNYKTTPPVLDSDGSFFLYSKLTVDKSRWQQGNVFSCSVMHEALHNHYTQKSLSLSPGGGSGGSEVQLVESGGGLVKPGGSLRLSCVASGFTFSDYYMSWFRQAPGKGLEWVSYISGSGTTIDYADSVKGRFTISRDNAKNSLYLQMNSLRAEDTAVYYCAREREPVAGTLDFDNWGQGTLVTVSS
As for B4, the results for the concentration giving a half-maximal response (EC50) in assay [1] and in assay [2] were 4.62 nM and 0.331 nM, respectively.

B5: PR007146 (bispecific antibody)
light: DIQMTQSPSTLSASVGDRVTVTCRASQSIYIWLAWYQQKPGKAPNLLIYKASSLETGVPSRFSGSGSGTEFTLTISSLQPDDFATYYCQQYYGSSRTFGQGTKVEIKRTVAAPSVFIFPPSDEQLKSGTASVVCLLNNFYPREAKVQWKVDNALQSGNSQESVTEQDSKDSTYSLSSTLTLSKADYEKHKVYACEVTHQGLSSPVTKSFNRGEC
heavy: EVQLVESGGGLVQPGGSLRLSCAASGFTFSSYWMSWVRQAPGKGLEWVANIKQEGSEKYYVDSVKGRFTISRDNAKNSLYLQMNSLRAEDTAVYYCARDRAVAGAFDIWGQGTMVTVSSASTKGPSVFPLAPSSKSTSGGTAALGCLVKDYFPEPVTVSWNSGALTSGVHTFPAVLQSSGLYSLSSVVTVPSSSLGTQTYICNVNHKPSNTKVDKKVEPKSCDKTHTCPPCPAPEAAGAPSVFLFPPKPKDTLMISRTPEVTCVVVDVSHEDPEVKFNWYVDGVEVHNAKTKPREEQYNSTYRVVSVLTVLHQDWLNGKEYKCKVSNKALPAPIEKTISKAKGQPREPQVYTLPPSREEMTKNQVSLTCLVKGFYPSDIAVEWESNGQPENNYKTTPPVLDSDGSFFLYSKLTVDKSRWQQGNVFSCSVMHEALHNHYTQKSLSLSPGGGSGGSEVQLVESGGGLVKPGGSLRLSCAASGFTFSDYYMSWVRQAPGKGLEWVSYISSSGSTIDYADSVKGRFTISRDNAKNSLFLEMNSLRAEDTAVYYCAREREEVAGTLDFDNWGQGTLVTVSS
As to B5, the figures for the EC50 in assay [1] and in assay [2] were 6.95 nM and 0.327 nM, respectively.

B6: PR007138 (bispecific antibody)
light: DIQMTQSPSTLSASVGDRVTVTCRASQSIYIWLAWYQQKPGKAPNLLIYKASSLETGVPSRFSGSGSGTEFTLTISSLQPDDFATYYCQQYYGSSRTFGQGTKVEIKRTVAAPSVFIFPPSDEQLKSGTASVVCLLNNFYPREAKVQWKVDNALQSGNSQESVTEQDSKDSTYSLSSTLTLSKADYEKHKVYACEVTHQGLSSPVTKSFNRGEC
heavy: EVQLVESGGGLVQPGGSLRLSCAASGFTFSSYWMSWVRQAPGKGLEWVANIKQEGSEKYYVDSVKGRFTISRDNAKNSLYLQMNSLRAEDTAVYYCARDRAVAGAFDIWGQGTMVTVSSASTKGPSVFPLAPSSKSTSGGTAALGCLVKDYFPEPVTVSWNSGALTSGVHTFPAVLQSSGLYSLSSVVTVPSSSLGTQTYICNVNHKPSNTKVDKKVEPKSCDKTHTCPPCPAPEAAGAPSVFLFPPKPKDTLMISRTPEVTCVVVDVSHEDPEVKFNWYVDGVEVHNAKTKPREEQYNSTYRVVSVLTVLHQDWLNGKEYKCKVSNKALPAPIEKTISKAKGQPREPQVYTLPPSREEMTKNQVSLTCLVKGFYPSDIAVEWESNGQPENNYKTTPPVLDSDGSFFLYSKLTVDKSRWQQGNVFSCSVMHEALHNHYTQKSLSLSPGGGSGGSEVQLVESGGGLVKPGGSLRLSCVTSGFTFSDYYMNWIRQAPGKGQEWVSYISGNGSTIYYADSVKGRFTISRDNAKNSLYLQMNSLRAEDTAVYYCARVRPGGSGNYWDWFDPWGQGTPVTVSS
Consider B6, for which the EC50 in assay [1] is 3.15 nM; in assay [2], 0.202 nM.

B7: PR007145 (bispecific antibody)
light: DIQMTQSPSTLSASVGDRVTVTCRASQSIYIWLAWYQQKPGKAPNLLIYKASSLETGVPSRFSGSGSGTEFTLTISSLQPDDFATYYCQQYYGSSRTFGQGTKVEIKRTVAAPSVFIFPPSDEQLKSGTASVVCLLNNFYPREAKVQWKVDNALQSGNSQESVTEQDSKDSTYSLSSTLTLSKADYEKHKVYACEVTHQGLSSPVTKSFNRGEC
heavy: EVQLVESGGGLVQPGGSLRLSCAASGFTFSSYWMSWVRQAPGKGLEWVANIKQEGSEKYYVDSVKGRFTISRDNAKNSLYLQMNSLRAEDTAVYYCARDRAVAGAFDIWGQGTMVTVSSASTKGPSVFPLAPSSKSTSGGTAALGCLVKDYFPEPVTVSWNSGALTSGVHTFPAVLQSSGLYSLSSVVTVPSSSLGTQTYICNVNHKPSNTKVDKKVEPKSCDKTHTCPPCPAPEAAGAPSVFLFPPKPKDTLMISRTPEVTCVVVDVSHEDPEVKFNWYVDGVEVHNAKTKPREEQYNSTYRVVSVLTVLHQDWLNGKEYKCKVSNKALPAPIEKTISKAKGQPREPQVYTLPPSREEMTKNQVSLTCLVKGFYPSDIAVEWESNGQPENNYKTTPPVLDSDGSFFLYSKLTVDKSRWQQGNVFSCSVMHEALHNHYTQKSLSLSPGGGSGGSEVQLVESGGGLVKPGGSLRLSCAASGFTFSDYYMSWIRQAPGKGLEWVSYISRSGSTIYYADSVKGRFTISRDNAKNSLYLQMNSLRAEDTAVYYCARVRPGGSGNYWDWFDPWGQGTLVTVSS
On to B7, for which the concentration giving a half-maximal response (EC50) in assay [1] came out at 22.4 nM; in assay [2], 0.286 nM.

Values taken from patent US20230242658A1 (published 2023).
